From the PETadex activity labels (doi:10.1021/bi00096a018)
Positions count from the first letter of the chain named.

B1: unnamed (protein)
chain: MRPPWYPLHTPSLAFPLLFLLLSLLGGGARAEGREDPQLLVRVRGGQLRGIRLKAPGGPVSAFLGIPFAEPPVGSRRFMPPEPKRPWSGVLDATTFQNVCYQNVNTLYPGFEGTEMWNPNRELSEDCLYLNVWTPYPRPASPTPVLIWIYGGGFQSGAASLDVYDGRFLAQVEGAVLVSMNYRVGTFGFLALPGSREAPGNVGLLDQRLALQWVQENIAAFGGDPMSVTLFGESAGAASVGMHILSLPSRSLFHRAVLQSGTPNGPWATVSAGEARRRATLLARLVGCPPGGAGGNDTELIACLRTRPAQDLVDHEAHVLPQESIFRFSFVPVVDGDFLSDTPEALINTGDFQDLQVLVGVVKDEGSYFLVYGVPGFSKDNESLISRAQFLAGVRIGVPQASDLAAEAVVLHYTDWLHPEDPTHLRDAMSAVVGDHNVVCPVAQLAGRLAAQGARVYAYIFEHRASTLTWPLWMGVPHGYEIEFIFGLPLDPSLNYTTEERIFAQRLMKYWTNFARTGDPNDPRDSKSPQWPPYTTAAQQYVSLNLKPLEVRRGLRAQTCAFWNRFLPKLLSATDTLDEAERQWKAEFHRWSSYMVHWKNQFDHYSKQERCSDL
B2: unnamed (protein)
chain: B1 chain with N103Y, Q155Y, A317W
B3: unnamed (protein)
chain: B1 chain with N103Y, N105D, Q155Y, A317W, R327S
B4: unnamed (protein)
chain: B1 chain with N103Y, N105D, Q155Y, A317W, F328I
B5: unnamed (protein)
chain: B1 chain with N105D, A317R

substrate: Acetylcholine; settings: pH 7; 22 °C

Protein	Km [µM]	kcat [s⁻¹]	kcat/Km [M⁻¹ s⁻¹]
B1	2100	2500	–
B2	1300	1400	–
B3	50	1530	–
B4	357000	250	700
B5	850	3500	–
